Experimental data as given in patent publication US20120165204A1 (UNIVERSITY OF NORTH CAROLINA AT CHAPEL HILL, published 2012).

Target: T1, 546-4 T17N (LOV2 carries non-covalent FMN; the Rac1 C-terminal CAAX box may be prenylated and trimmed in cells)
T1 construct: only the lane label names it
Experiment: pull-down (CoIP) with FLAG-tagged PAK1 co-expressed in HEK 293 cells, FLAG/M2-agarose, in the dark; Western blot
Method: The cells were lysed in 50 mM Tris pH 7.5, 150 mM NaCl, and 1% Triton X-100 (lysis buffer) with addition of EDTA-free protease inhibitor cocktail (Roche). After brief centrifugation, the supernatants were incubated with FLAG/M2-agarose (Sigma) followed by washes with lysis buffer, and elution with lysis buffer containing 200 μg/ml 3× FLAG peptide (Sigma). All procedures were done at 4° C. under red light, facilitated using Handee spin columns (Pierce).

binding result: no binding
B1: FLAG-tagged PAK1 (enzyme, UniProt Q13153 1-545, looked up)
chain: MSNNGLDIQDKPPAPPMRNTSTMIGAGSKDAGTLNHGSKPLPPNPEEKKKKDRFYRSILPGDKTNKKKEKERPEISLPSDFEHTIHVGFDAVTGEFTGMPEQWARLLQTSNITKSEQKKNPQAVLDVLEFYNSKKTSNSQKYMSFTDKSAEDYNSSNALNVKAVSETPAVPPVSEDEDDDDDDATPPPVIAPRPEHTKSVYTRSVIEPLPVTPTRDVATSPISPTENNTTPPDALTRNTEKQKKKPKMSDEEILEKLRSIVSVGDPKKKYTRFEKIGQGASGTVYTAMDVATGQEVAIKQMNLQQQPKKELIINEILVMRENKNPNIVNYLDSYLVGDELWVVMEYLAGGSLTDVVTETCMDEGQIAAVCRECLQALEFLHSNQVIHRDIKSDNILLGMDGSVKLTDFGFCAQITPEQSKRSTMVGTPYWMAPEVVTRKAYGPKVDIWSLGIMAIEMIEGEPPYLNENPLRALYLIATNGTPELQNPEKLSAIFRDFLNRCLEMDVEKRGSAKELLQHQFLKIAKPLSSLTPLIAAAKEATKNNH
notes: Bait of the pull-down assays (FLAG/M2-agarose); not shown: FLAG tag
